In the supplement of paper PMC12042874:
± gives the uncertainty stated by the source.

Assay: amyloid nucleation score (Sup35N fusion, yeast selection) (log enrichment); library NNK2; higher = more nucleation; inactive = no reads after selection
Method in brief: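 Sup35N was fused to peptides of 20 random codons and expressed in psi-negative yeast, which were induced with 100 μM copper sulfate for 24 hours and then grown on medium lacking adenine and uracil for 7 days at 30°C. Plasmid inserts from input and output were sequenced on Illumina. The nucleation score is the DiMSum log enrichment of output over input reads, centred on the mode score of non-aggregating sequences. Sequences with under 100 input reads were left out, and random libraries had three technical output replicates.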

Row | Substance | amyloid nucleation score
1 | SQFAVRKEGTDSEEFLKSVV | -0.197 ± 0.48
2 | SQHGVKNLSSRFESLIA | -0.197 ± 0.79
3 | SQHSVARIANGLLTSGTMVL | 0.875 ± 0.36
4 | SQIRFWSRPRDCFGFLMRYV | -0.852 ± 1
5 | SQLVMHYKQVC | 1.82 ± 0.14
6 | SQSKNDQ | 0.257 ± 0.34
7 | SRAGECSSWGHIYGLCVDLR | -0.897 ± 0.55
8 | SRAKNLHSFKSNMCDAFSYN | inactive
9 | SRFLFCVPHVDCWLLTWNLS | 6.68 ± 0.073
10 | SRFLLKDKSNTSGVMQLGMW | -0.374 ± 0.41
11 | SRFYILRL | 2.25 ± 0.098
12 | SRGWTRMRSYVVSSDFILLK | 0.178 ± 0.48
13 | SRHKFRSITFIEIHPMI | 0.012 ± 0.43
14 | SRHRLAMRTAGTRVVSCWG | 0.285 ± 0.3
15 | SRIEHMACLRRP | 0.496 ± 0.66
16 | SRIIMSFTSGLCDNHSKLKC | 1.68 ± 0.19
17 | SRKSFLLCILLCSITLPLAR | -1.09 ± 0.44
18 | SRNTVLYISLSFLTPYISCC | 8.221 ± 0.028
19 | SRTSSKAYTPYFVSRGHDRY | -0.903 ± 0.76
20 | SRVGFFS | 0.072 ± 1.1
21 | SRVIWHDSQLFVVFSSTAYK | 4.04 ± 0.041
22 | SRVSLYQML | -1.01 ± 0.34
23 | SRYACVRLICQVWPLWVGSG | 0.875 ± 0.43
24 | SRYGWMNRWKQPVQVVNPGF | 0.031 ± 0.38
25 | SRYIM | -1.06 ± 1.1

Row | Substance | amyloid nucleation score
26 | SRYLSVIYYHRSNTWLRDRE | inactive
27 | SSCLIG | 0.28 ± 0.43
28 | SSFFLGLPPIREIGPWTTQR | 0.168 ± 0.27
29 | SSFFPRQ | -0.767 ± 0.76
30 | SSGRGIRLTLTVSIDRKKMG | -0.391 ± 0.4
31 | SSIGKGFSNSYGHAYCKHTW | -0.124 ± 0.76
32 | SSIKSSKIGAGGSL | -0.213 ± 0.79
33 | SSKFTHDYGGEDIVIDQDES | 0.14 ± 0.53
34 | SSKYYA | -0.131 ± 0.32
35 | SSLCIRSAL | -0.092 ± 0.63
36 | SSLDRKAVLAILSSTYLLRL | 2.33 ± 0.23
37 | SSLGA | -0.059 ± 0.5
38 | SSMLPYSRHTIRVTKVRPPF | 0.561 ± 0.62
39 | SSMLYTYVRLMNMNNIYVAS | 0.737 ± 0.62
40 | SSNFRLSLWYSKMM | -0.246 ± 0.36
41 | SSNHTPTVVMHDHIPVLNFR | -0.628 ± 0.63
42 | SSNSEDDGNWMMLLSNKYRI | 0.559 ± 0.27
43 | SSPHWSK | -0.051 ± 0.37
44 | SSRRGNDGWRCGPSCGGCTG | 3.65 ± 0.082
45 | SSSAIHLRFNYCYHCFHSLT | 5.08 ± 0.065
46 | SSSDFEFSHVIKGAIFRLFT | -1.2 ± 1
47 | SSSEVSFSCYVVDVQLS | -0.603 ± 0.49
48 | SSSLLRSHRVGYVNLVVRED | -0.524 ± 0.55
49 | SSSREALCRKHDGVL | 0.905 ± 0.45
50 | SSSTFCCLWTFDTRVQFLVN | 7.39 ± 0.079

Row | Substance | amyloid nucleation score
51 | SSSVDRTVHPLCYGFSLRRD | -0.168 ± 0.28
52 | SSTKIFHLL | inactive
53 | SSTPMCVPMYCS | inactive
54 | SSTVAGAIIE | 0.575 ± 0.18
55 | SSVAKVRGSVLYMGRSGWVG | 0.138 ± 0.8
56 | SSVQNCSVCVGGPMYREFSW | 4.994 ± 0.042
57 | SSWLYGVYSSYMWMLF | -1.45 ± 1
58 | SSYGWVMLMEDFW | -1.23 ± 0.62
59 | SSYTMEPPHVRA | 0.155 ± 1.1
60 | STDAILAGKFCSGH | -0.943 ± 0.55
61 | STFFKLD | -1.88 ± 1.1
62 | STFIMCDRTDPASIAIA | 0.6 ± 0.64
63 | STFLKATYRSHRRHW | 0.962 ± 0.39
64 | STGSNFDESSKQCFAFICKK | inactive
65 | STIQGIKNRSYRHSSANRVN | 0.333 ± 0.61
66 | STLKPVNPGKVRH | 0.445 ± 0.57
67 | STLTFIVSSSDEGWSHYREA | 3.79 ± 0.07
68 | STMRSWAAC | 4.25 ± 0.091
69 | STMWTIGSWLKAGALSFGFL | -0.441 ± 0.36
70 | STNSDFLYQKNLPMVSSGNI | -0.408 ± 0.79
71 | STPHFH | -0.146 ± 1
72 | STRNSFPSDKAYLS | -0.605 ± 0.74
73 | STSGVKAVQISLSSVPWRWD | 2.34 ± 0.13
74 | STVFRQSLE | 0.269 ± 0.22
75 | STVTVGHNSHVCAFIF | -0.326 ± 0.54

Row | Substance | amyloid nucleation score
76 | STVYIVCHGVILRVRMGPWL | 2.46 ± 0.12
77 | STWCRMANYLITCFVTKSRV | -1.33 ± 1.1
78 | STWDESWLHVLRWREFATLQ | 1.11 ± 0.22
79 | STWKNDHTHSCASWAKVCIT | -0.138 ± 0.34
80 | STWPCNQPSYVSV | 0.204 ± 0.28
81 | SVAASGFHVV | -1.57 ± 0.76
82 | SVADGAHFCYYNLYFGGFVY | 4.24 ± 0.081
83 | SVDIHGTFWHILYSIAPDQV | 1.75 ± 0.23
84 | SVFSYQYETKVGSQNLLEYI | -0.751 ± 1.1
85 | SVFVCTDIFK | 0.702 ± 0.52
86 | SVGRTESAQYRKTV | 0.568 ± 0.44
87 | SVIHREIELVFILI | 4.4 ± 0.087
88 | SVIITIGLSIKSALRFRRFQ | 4.57 ± 0.058
89 | SVIRMLYD | -0.113 ± 0.45
90 | SVKCWRWFGA | 1.73 ± 0.27
91 | SVKCWVALAPYLGDRKDPVW | 2.94 ± 0.15
92 | SVLER | -0.147 ± 1.1
93 | SVLLRDMGILYVMRNYYWPL | -0.033 ± 0.76
94 | SVLLWWTHMYGLRMMKGVWG | 0.433 ± 0.15
95 | SVLQAYFRTWSQWIRYTCAG | -0.141 ± 0.31
96 | SVLSFMRYLCGWQA | 6.513 ± 0.053
97 | SVLTIRLKMQGHWLPGAAGC | 3.66 ± 0.15
98 | SVMSRNGNYVIVLGQCNCYM | 8.509 ± 0.022
99 | SVNILDTWDKVAPTKRPLES | 0.266 ± 0.49
100 | SVRPRPD | 0.617 ± 0.23

Row | Substance | amyloid nucleation score
101 | SVSYSGDNH | -0.177 ± 1
102 | SVTCSSRCVSQRRFLVGPWN | -1.35 ± 0.41
103 | SVVLCTAFVQPC | 0.158 ± 0.45
104 | SVWGKD | 0.073 ± 0.63
105 | SVYANILFNKACMRFNVVNG | 0.23 ± 0.21
106 | SWFRMSVWSSLRAHMNASNT | -0.198 ± 0.28
107 | SWHQKSELKTCWSLAIQYHT | -0.191 ± 0.65
108 | SWKFNRASPSEMMCASNAWN | 0.404 ± 0.8
109 | SWLTRIC | -0.249 ± 0.63
110 | SWMNYRCRQDMSCCK | 0.908 ± 0.47
111 | SWRENFGWGICCSTVWPRCR | 1.86 ± 0.21
112 | SWRTWISRCYFTLDDVSKTA | 0.181 ± 0.43
113 | SWSCRMEADSGFPAFIGAKK | -0.47 ± 1
114 | SWVTSYERLRLPLNCMSNDQ | -0.452 ± 0.42
115 | SWYLFGPDR | -0.433 ± 0.54
116 | SYDGERVI | 0.444 ± 0.28
117 | SYDLPPFI | 2.57 ± 0.11
118 | SYECCNKMQDINSMCGKLYW | 0.274 ± 1.1
119 | SYFKSTSARCFSFYLCCAKT | 6.224 ± 0.05
120 | SYFMTLIVPGRLLWIDLEGV | -0.823 ± 0.63
121 | SYIICELNQLLGFKNWHKTC | 2.83 ± 0.068
122 | SYLDILCVRIVSHHCSVSSK | 0.112 ± 0.46
123 | SYLHNSN | -1.26 ± 0.78
124 | SYMFDSEVQVRTDFLLFCYI | 0.346 ± 0.17
125 | SYNDWGFMKVGCL | -0.686 ± 0.39

Row | Substance | amyloid nucleation score
126 | SYNRSKCNSTRLMLKSKTAH | 1.51 ± 0.47
127 | SYPFYVFSSNASSTAVIKLT | 1.07 ± 0.19
128 | SYSSPHRINGCVIRP | -0.084 ± 0.54
129 | SYVGICGAMNLCSETVSCMV | -0.977 ± 0.41
130 | SYVGVSNGRVVWVRVMANSK | inactive
131 | SYVIGGGSMGQARDRCLSNA | 1.11 ± 0.23
132 | SYVIP | -1.06 ± 1
133 | SYVSIWLACWLISFNWSGNG | 0.713 ± 0.58
134 | SYYISHYMSVWISLTDSGCY | -0.14 ± 0.56
135 | SYYYEGGPCWIEDLHGNVYV | 0.183 ± 0.64
136 | TAKDAFMFQGLASLS | inactive
137 | TARLLSPQ | -0.376 ± 0.76
138 | TASKILSGIASYDSRIIQPE | -0.447 ± 0.23
139 | TASWNWLGIVRAGF | 1.08 ± 0.27
140 | TCATTDGVR | 1.04 ± 0.21
141 | TCCRLILYGILINNLRAWSH | 4.01 ± 0.073
142 | TCELYESHVGTFLHVSSNGT | 1.23 ± 0.12
143 | TCFMRCRTCNLRVIHSDVF | 5.546 ± 0.048
144 | TCGRYSYSWVFSESKS | inactive
145 | TCIGHFSNSQYN | inactive
146 | TCLVCVTEVAHDSHLNRVSH | 7.08 ± 0.082
147 | TCQPGRLALNAKERGSGDRL | 0.482 ± 0.3
148 | TDLWSNYLSGNLVENFITCL | -1.96 ± 1.1
149 | TDNMDEMDREYLSCHKFCFG | 3.69 ± 0.045
150 | TDVIYYGYLSRRLQVYVLPS | -1.55 ± 1.1

Row | Substance | amyloid nucleation score
151 | TECYLDVHLLHCRCALRSTP | 6.83 ± 0.069
152 | TEIKSCKDNTHVHMHSLIRA | 0.384 ± 0.43
153 | TFEYCSLYVGCNQGNLVITT | 6.575 ± 0.041
154 | TFGLWPPQGMAIRGMRVNMN | inactive
155 | TFIVMKIHYRFKVKLICQTC | 0.681 ± 0.46
156 | TFLIGTV | -1.01 ± 0.5
157 | TFNVPKMESVRPPG | 0.796 ± 0.52
158 | TFPSISTFARSLFFVYQVYP | -1.13 ± 1.1
159 | TFQSYRDESFSWSRLVSSQR | -0.477 ± 0.26
160 | TFRAMAFVIFAGWLIRYDRR | inactive
161 | TFRRTVNGNMRGQMPTNWAF | 0.537 ± 0.22
162 | TFSFFATVDQMFCCVGRCEW | 8.132 ± 0.03
163 | TFTGLFKKLI | inactive
164 | TFVKGKMFNLTRVWVLPYWT | 0.318 ± 0.46
165 | TGALHWVNAYVLFRKVCKGM | 0.297 ± 0.26
166 | TGDCC | 0.32 ± 0.33
167 | TGFCGRHYDLSSSTEDLYLL | 0.606 ± 0.8
168 | TGFSLVFSWFFLNG | 3.68 ± 0.099
169 | TGGISYLD | inactive
170 | TGLAIGCFLVCSVLYGDR | 3.17 ± 0.13
171 | TGLVMVHSTRVPKRLGMLCL | 0.967 ± 0.33
172 | TGLWDVCQVLIRFRNVFWRN | 3.06 ± 0.079
173 | TGRTTF | inactive
